This passage reports binding result, EC50 and Max results from patent publication US20240301086A1 (APTEVO RESEARCH AND DEVELOPMENT, published 2024).

The target of one assay is human Fcγ receptor I (human, UniProt P12314 16-288). Nature of the assay: SPR (Biacore T200), construct amine-coupled, Fcγ receptor as analyte. As to the method: (§1) The Fc region incorporated into anti-PSMA bispecific constructs contained mutations intended to reduce or abolish binding to common human and cynomolgus Fc gamma receptors. SPR experiments were conducted at 25° C. in HBS-EP+ with 0.2% BSA buffer on a Biacore T200 system to evaluate the impact of these mutations on binding. For these experiments, three flow cells of a CM5 sensor chip were immobilized with anti-PSMA bispecifics by standard amine coupling to a response level of ˜2000 RU. A blank immobilization was performed on flow cell #1 for purposes of background signal subtraction. Both human and cynomolgus monkey Fcγ receptors (purchased from R&D Systems) were diluted in HBS-EP+ with 0.2% BSA to 4-6 μM and then flowed as analytes at 30 μL/min for 120 seconds followed by a 240 second dissociation step. No regeneration step was required. Blank-subtracted sensorgrams were visually inspected for binding to each of the Fcγ receptor proteins. […] Attenuated binding to Fcγ receptors IIA (both polymorphic variants) and IIB/C was observed. PSMA01107 and PSMA01108 share the same Fc amino acid sequence and therefore equivalent Fcγ receptor binding behavior was expected.
Sequence of human Fcγ receptor I (P12314 16-288): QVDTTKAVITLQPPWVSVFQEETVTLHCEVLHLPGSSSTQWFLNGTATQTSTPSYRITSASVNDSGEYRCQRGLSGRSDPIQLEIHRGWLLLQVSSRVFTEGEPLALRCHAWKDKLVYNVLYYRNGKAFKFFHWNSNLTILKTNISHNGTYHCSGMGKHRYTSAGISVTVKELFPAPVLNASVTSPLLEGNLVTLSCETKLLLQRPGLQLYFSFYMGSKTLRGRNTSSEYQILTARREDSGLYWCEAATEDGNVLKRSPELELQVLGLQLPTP

The target of assay [1] is human Fcγ receptor IIIA, V176 variant (human, UniProt P08637 17-208). The assay is described as above. As to the method:
as §1

The target in assay [2] is human Fcγ receptor IIIA, F176 variant (human, UniProt P08637 17-208). Described as above. The method, then:
as §1

A further assay has as its target human Fcγ receptor IIIB (human, UniProt O75015 17-200). The assay is described as above. The method, then:
as §1

In assay [3] the target is T1, cynomolgus Fcγ receptor III (cynomolgus monkey, UniProt Q8SPW2 17-208).
T1 construct: Called recombinant, soluble; also called Cyno RIII
T1 sequence (Q8SPW2 17-208): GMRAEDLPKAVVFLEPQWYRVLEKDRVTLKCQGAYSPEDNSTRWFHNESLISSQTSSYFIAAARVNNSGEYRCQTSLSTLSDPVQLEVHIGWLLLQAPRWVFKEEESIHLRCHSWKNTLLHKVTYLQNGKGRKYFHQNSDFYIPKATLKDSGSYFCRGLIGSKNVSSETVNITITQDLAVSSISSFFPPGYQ
The experiment in a line: SPR (Biacore T200), construct amine-coupled, soluble cyno Fcγ receptor as analyte. As to the method: as §1
Background: SPR reads the build-up and loss of mass on a sensor chip optically.

For assay [4], the target named is T2, Full-length Human PSMA (TSC435), on cells (human, UniProt Q04609 1-750).
T2 construct: also called CHOK1SV/huPSMA; PSMA on C4-2B, 22RV1, LNCaP, MDA-PCa-2b cells
Nature of the assay: flow cytometry on C4-2B cells, PE goat anti-human IgG Fc secondary, MFI (median). As to the method: (§2) Constructs were initially tested in CD3ε and PSMA binding assays on Jurkat and C4-2B cells. Cells were labelled at approximately 100,000 cells per well, in 96-well plates, with serial dilutions of bispecific constructs ranging in concentration from of 0.1 to 300 nM, for 30 min on ice. Primary label was followed by washes and incubation with PE-labeled minimum cross species reactive secondary antibody, goat anti-human IgG Fcγ, F(ab′)2 (Jackson Laboratory) for 30 minutes on ice. Washes and incubation were done in staining buffer (PBS with 0.2% BSA and 2 mM EDTA). Cells were collected using an BD™ LSRII or a BD FACSymphony™ flow cytometer (BD Biosciences) and analyzed by FlowJo flow cytometry analysis software. Median fluorescence intensity (MFI) of bound molecules on cells was determined after exclusion of doublets. Results were plotted and nonlinear regression analysis to determine EC50 values was performed using GraphPad Prism 7© graphing and statistics software.
For orientation: In flow cytometry, cells or beads pass a laser one at a time.

Assay [5] deals with T2, Full-length Human PSMA (TSC435), on …. Described as above. As to the method: as §2
The source holds these as a separate data set.

For assay [6], the target named is T3, human CD3ε in the TCR/CD3 complex on Jurkat cells (human, UniProt P07766 23-207).
T3 construct: whole, on cells; On the cells it stands in the whole TCR/CD3 complex; also called CD3 (+) cells; CD3-expressing Jurkat cells
T3 sequence (P07766 23-207, one chain of several): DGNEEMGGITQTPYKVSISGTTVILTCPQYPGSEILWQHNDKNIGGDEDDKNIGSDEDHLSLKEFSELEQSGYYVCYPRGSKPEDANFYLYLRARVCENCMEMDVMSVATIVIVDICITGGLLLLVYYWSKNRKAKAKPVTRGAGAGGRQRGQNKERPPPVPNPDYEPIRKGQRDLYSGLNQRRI
Nature of the assay: flow cytometry on Jurkat cells, PE goat anti-human IgG Fc secondary, MFI (median). As to the method: as §2

Assay [7] addresses T3, human CD3ε in the TCR/CD3 complex on …. The description is as above. As to the method:
as §2
The source holds these as a separate data set.

For assay [8] the target is unchanged. The experiment in a line: flow cytometry, drawn table 'On- Cell Binding Parameters', row 'Human CD3 binding affinity'. As to the method: as §2
Assay [9] has as its target T2, Full-length Human PSMA (TSC435), on …. Nature of the assay: flow cytometry, drawn table 'On- Cell Binding Parameters', row 'Human PSMA binding affinity'.
Assay [10] deals with T4, Full-length cynomolgus monkey PSMA (TSC308), on cells (cynomolgus monkey, UniProt Q04609 1-750 (human entry)).
T4 construct: also called cyno PSMA; CHOK1SV/cynoPSMA
T4 chain: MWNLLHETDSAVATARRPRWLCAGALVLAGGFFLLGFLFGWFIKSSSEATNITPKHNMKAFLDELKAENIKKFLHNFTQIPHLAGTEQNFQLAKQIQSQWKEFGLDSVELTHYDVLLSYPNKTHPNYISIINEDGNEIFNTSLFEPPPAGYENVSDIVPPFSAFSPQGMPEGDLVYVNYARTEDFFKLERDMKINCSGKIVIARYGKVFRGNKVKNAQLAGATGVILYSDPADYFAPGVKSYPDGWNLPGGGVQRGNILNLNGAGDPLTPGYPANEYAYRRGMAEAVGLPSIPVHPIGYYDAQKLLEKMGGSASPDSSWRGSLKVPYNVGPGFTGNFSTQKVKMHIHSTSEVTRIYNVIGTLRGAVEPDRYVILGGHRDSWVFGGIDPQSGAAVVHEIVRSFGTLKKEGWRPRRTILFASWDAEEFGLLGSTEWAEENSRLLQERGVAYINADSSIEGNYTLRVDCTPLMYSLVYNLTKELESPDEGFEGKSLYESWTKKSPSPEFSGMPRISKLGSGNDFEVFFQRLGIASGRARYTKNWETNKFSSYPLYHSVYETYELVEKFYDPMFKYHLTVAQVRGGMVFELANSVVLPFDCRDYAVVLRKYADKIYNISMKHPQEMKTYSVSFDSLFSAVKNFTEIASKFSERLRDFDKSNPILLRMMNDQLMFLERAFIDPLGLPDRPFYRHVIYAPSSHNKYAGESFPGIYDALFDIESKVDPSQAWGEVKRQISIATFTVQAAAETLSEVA
Nature of the assay: flow cytometry on CHO-CynoPSMA cells, Median (PE); drawn table row 'Cyno PSMA binding affinity'.

Sequence of human Fcγ receptor IIIB (O75015 17-200): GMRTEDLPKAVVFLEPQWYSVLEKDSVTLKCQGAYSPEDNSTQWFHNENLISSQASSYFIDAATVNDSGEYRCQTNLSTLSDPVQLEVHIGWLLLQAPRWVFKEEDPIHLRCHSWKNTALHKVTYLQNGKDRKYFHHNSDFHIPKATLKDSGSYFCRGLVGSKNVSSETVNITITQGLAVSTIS
Sequence of human Fcγ receptor IIIA, F176 variant (P08637 17-208, change not shown): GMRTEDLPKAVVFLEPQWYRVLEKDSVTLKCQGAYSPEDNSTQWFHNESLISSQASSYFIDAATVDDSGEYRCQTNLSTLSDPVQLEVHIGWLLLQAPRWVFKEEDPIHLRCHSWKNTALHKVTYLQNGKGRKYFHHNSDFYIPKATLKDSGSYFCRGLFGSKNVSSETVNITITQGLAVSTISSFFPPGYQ
Sequence of human Fcγ receptor IIIA, V176 variant (P08637 other isoform, or with tags, fused parts or gaps mutant): as the sequence (P08637 17-208, change not shown) above, with F160V counted along it

B1: PSMA01107 Anti-PSMA scFv x Fc x linker x Anti CD3 scFv; Anti PSMA scFv x Fc (bispecific antibody)
chain 1: QVQLVQSGAEVKKPGASVKVSCKASGYTFTDYYMHWVRQAPGQGLEWMGYFNPYNDYTRYAQKFQGRVTMTRDTSTSTVYMELSSLRSEDTAVYYCARSDGYYDAMDYWGQGTTVTVSSGGGGSGGGGSGGGGSGGGGSDIQMTQSPSSLSASVGDRVTITCRASKSISKYLAWYQQKPGKAPKLLIHSGSSLESGVPSRFSGSGSGTEFTLTISSLQPDDFATYYCQQHIEYPWTFGQGTKVEIKEPKSSDKTHTCPPCPAPPAAAPSVFLFPPKPKDTLMISRTPEVTCVVVDVSHEDPEVKFNWYVDGVEVHNAKTKPREEQYNSTYRVVSVLTVLHQDWLNGKEYKCAVSNKALPAPIEKTISKAKGQPREPQVYTLPPSRDELTKNQVSLWCLVKGFYPSDIAVEWESNGQPENNYKTTPPVLDSDGSFFLYSKLTVDKSRWQQGNVFSCSVMHEALHNHYTQKSLSLSPGGGGSPSQVQLVQSGAEVKKPGASVKVSCKASGYTFTRSTMHWVRQAPGQGLEWIGYINPSSAYTNYAQKFQGRVTLTADKSTSTAYMELSSLRSEDTAVYYCASPQVHYDYNGFPYWGQGTLVTVSSGGGGSGGGGSGGGGSGGGGSDIQMTQSPSSLSASVGDRVTITCRASSSVSYMNWYQQKPGKAPKRWIYDSSKLASGVPSRFSGSGSGTDFTLTISSLQPEDFATYYCQQWSRNPPTFGQGTKVEIKRS
chain 2: QVQLVQSGAEVKKPGASVKVSCKASGYTFTDYYMHWVRQAPGQGLEWMGYFNPYNDYTRYAQKFQGRVTMTRDTSTSTVYMELSSLRSEDTAVYYCARSDGYYDAMDYWGQGTTVTVSSGGGGSGGGGSGGGGSGGGGSDIQMTQSPSSLSASVGDRVTITCRASKSISKYLAWYQQKPGKAPKLLIHSGSSLESGVPSRFSGSGSGTEFTLTISSLQPDDFATYYCQQHIEYPWTFGQGTKVEIKEPKSSDKTHTCPPCPAPPAAAPSVFLFPPKPKDTLMISRTPEVTCVVVDVSHEDPEVKFNWYVDGVEVHNAKTKPREEQYNSTYRVVSVLTVLHQDWLNGKEYKCAVSNKALPAPIEKTISKAKGQPREPQVYTLPPSRDELTKNQVSLSCAVKGFYPSDIAVEWESNGQPENNYKTTPPVLDSDGSFFLVSKLTVDKSRWQQGNVFSCSVMHEALHNHYTQKSLSLSPG
notes: Heterodimer, bivalent for PSMA and monovalent for CD3 (VH-VL scFv at the C-terminus); also called PSMA1107
Regarding B1, the binding result (with human Fcγ receptor I; in assay [1]; in [2]; in the assay with human Fcγ receptor IIIB; in assay [3]) was “no binding (tested: 4-6 µM)” throughout. Further, the EC50 (in general, the concentration at which the effect is half-maximal) in assay [4] is 1 nM; in assay [5], 1 nM; in [6], over 208 nM; in [7], over 200 nM; in [8], over 200 nM; in [9], 1 nM. Also, the EC50 in assay [10] came to 5 nM. For the same molecule, the values for the Max in assay [8], in [9] and in [10] were 2000, 2400 and 22000, respectively.

B2: TSC266 Anti PSMA scFv x Anti CD3 scFv ADAPTIR (bispecific antibody)
chain: DIQMTQSPSAMSASVGDRVTITCRASKSISKYLAWFQQKPGKVPKLRIHSGSTLQSGVPSRFSGSGSGTEFTLTISSLQPEDFATYYCQQHIEYPWTFGQGTKVEIKRGGGGSGGGGSGGGGSQVQLVQSGAEVKKPGASVKVSCKASGYTFTDYYMHWVRQAPGQGLEWMGYFNPYNDYTRYAQKFQGRVTMTRDTSISTAYMELSSLRSDDTAVYYCARSDGYYDAMDYWGQGTTVTVSSSEPKSSDKTHTCPPCPAPEAAGAPSVFLFPPKPKDTLMISRTPEVTCVVVDVSHEDPEVKFNWYVDGVEVHNAKTKPREEQYNSTYRVVSVLTVLHQDWLNGKAYACAVSNKALPAPIEKTISKAKGQPREPQVYTLPPSRDELTKNQVSLTCLVKGFYPSDIAVEWESNGQPENNYKTTPPVLDSDGSFFLYSKLTVDKSRWQQGNVFSCSVMHEALHNHYTQKSLSLSPGQRHNNSSLNTGTQMAGHSPNSQVQLVESGGGVVQPGRSLRLSCKASGYTFTRSTMHWVRQAPGQGLEWIGYINPSSAYTNYNQKFKDRFTISADKSKSTAFLQMDSLRPEDTGVYFCARPQVHYDYNGFPYWGQGTPVTVSSGGGGSGGGGSGGGGSAQDIQMTQSPSSLSASVGDRVTMTCSASSSVSYMNWYQQKPGKAPKRWIYDSSKLASGVPARFSGSGSGTDYTLTISSLQPEDFATYYCQQWSRNPPTFGGGTKLQITSSS
notes: The anti-PSMA domain is that of PSMA01012 and the anti-CD3 domain is DRA222; also called unoptimized parent construct; TSC266 control (PSMA × CD3 bispecific protein)
As for B2, the binding result (with human Fcγ receptor I; in assay [1]; in assay [2]; with human Fcγ receptor IIIB; in assay [3]) was “no binding (tested: 4-6 µM)” in each case. Also, the EC50 stood at 7 nM in assay [4]; 7 nM in assay [5]; 2 nM in assay [6]; 2 nM in [7]; 2 nM in assay [8]; 10 nM in assay [9]. This molecule also yielded an EC50 in [10] of 20 nM. In addition, the Max is 15000 in assay [8], 1400 in assay [9] and 6000 in [10].
